Measured values: patent US20030166567

Biological target: T1, 19-mer (SEQ ID NO:11) cleavage domain peptide
T1 chain: PRCGNPDVANYNFFPRKPK

B1: Proenzyme pro-MMP-9 (protein)
chain: APRQRQSTLVLFPGDLRTNLTDRQLAEEYLYRYGYTRVAEMRGESKSLGPALLLLQKQLSLPETGELDSATLKAMRTPRCGVPDLGRFQTFEGDLKWHHHNITYWIQNYSEDLPRAVIDDAFARAFALWSAVTPLTFTRVYSRDADIVIQFGVAEHGDGYPFDGKDGLLAHAFPPGPGIQGDAHFDDDELWSLGKGVVVPTRFGNADGAACHFPFIFEGRSYSACTTDGRSDGLPWCSTTANYDTDDRFGFCPSERLYTQDGNADGKPCQFPFIFQGQSYSACTTDGRSDGYRWCATTANYDRDKLFGFCPTRADSTVMGGNSAGELCVFPFTFLGKEYSTCTSEGRGDGRLWCATTSNFDSDKKWGFCPDQGYSLFLVAAHEFGHALGLDHSSVPEALMYPMYRFTEGPPLHKDDVNGIRHLYGPRPEPEPRPPTTTTPQPTAPPTVCPTGPPTVHPSERPTAGPTGPPSAGPTGPPTAGPSTATTVPLSPVDDACNVNIFDAIAEIGNQLYLFKDGKYWRFSEGRGSRPQGPFLIADKWPALPRKLDSVFEERLSKKLFFFSGRQVWVYTGASVLGPRRLDKLGLGADVAQVTGALRSGRGKMLLFSGRRLWRFDVKAQMVDPRSASEVDRMFPGVPLDTHDVFQYREKAYFCQDRFYWRVSSRSELNQVDQVGYVTYDILQCPED
- anti-activation (splicing) assay: conversion of pro-MMP-9 by stromilysin, followed by HPLC: Titrating the standard splicing reaction with the 19-mer (SEQ ID NO:11) peptide prevents the conversion of pro-MMP-9 into the prodomain and the active enzyme ... Splicing can be inhibited in a dose dependent manner with micromolar 19-mer (SEQ ID NO:11) peptide
